In the test the target is human tumor necrosis factor-alpha (hTNFα) (human) (UniProt P01375). Briefly: cell-based or functional assay.
Sequence of human tumor necrosis factor-alpha (hTNFα) (human) (P01375 77-233): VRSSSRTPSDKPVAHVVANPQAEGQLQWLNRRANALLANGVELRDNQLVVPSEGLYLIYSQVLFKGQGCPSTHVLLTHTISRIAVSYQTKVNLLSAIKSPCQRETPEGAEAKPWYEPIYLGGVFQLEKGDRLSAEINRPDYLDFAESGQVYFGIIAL

B1: chimeric mouse/human IgG1 anti-platelet mAb (7E3) (antibody, INN chains, looked up, V domains shown)
VH: EVQLQQSGTVLARPGASVKMSCEASGYTFTNYWMHWVKQRPGQGLEWIGAIYPGNSDTSYIQKFKGKAKLTAVTSTTSVYMELSSLTNEDSAVYYCTLYDGYYVFAYWGQGTLVTVSA
VL: EIVLTQSPVTLSVTPGDSVSLSCRASRDISNNLHWFQQTSHESPRLLIKYASQSMSGIPSRFSGSGSGTDFTLSINSVETEDFGMYFCQQTNSWPYTFGGGTKLEIK
modifications: IgG1
B1 displayed an IL-6 secreted by FS-4 fibroblasts; 4 µg/ml antibody, rhTNF 0.3 ng/ml of 1.6 ng/mL; an IL-6 secreted by FS-4 fibroblasts; 4 µg/ml antibody, rhTNF 1.5 ng/ml of 1.96 ng/mL; an IL-6 secreted by FS-4 fibroblasts; 4 µg/ml antibody, rhTNF 7.5 ng/ml of 2.16 ng/mL.

Values taken from patent publication US20060140946A1.
